Test results reported in patent publication US20260258115A1 (MAPP BIOPHARMACEUTICAL, published 2026).
Substitutions are numbered along the chain they refer to.

B1: ADI-41441 (antibody, V domains shown)
VH: EVQLVQSGPGLVKPSETLSLTCSVSGASISRYHYYWGWIRQSPGKGLEWIGTIYYSGTTYYNPSLESRVTISADTSKNQVSLKLTSVTAADTAVYYCARGSGDTALDFSFEYWGQGALVTVSS
VL: DIQLTQSPSFLSASVGDRITITCRASQGISNSLAWYQQKPGKAPKLLIYAASTLQFAVPSRFSGSGSGTEFTLTISSLQPEDFATYYCQQLDSYPLTFGGGTKLEIK
B2: ADI-41235 (antibody, V domains shown)
VH: QVQLQQWGAGLLKPSETLSLTCGVYGESFSGHYWSWIRQPPGKGLEWMGEIHHSGTTNYNPSLKSRVTISVDTSKNQFSLKLNSVTAADTAVYYCARNPAEDILTGYSPPFHYYYMDVWGKGTTVTVSS
VL: QSVLTQPPSVSGAPGQRVTISCTGSSSNIGAGYDVHWYQQIPGTAPKLLIHSNNNRPSGVPDRFSGSKSGTSASLAITGLQAEDEADYYCQSYDSSLSVVFGGGTKLTVL
B3: ADI-41812 (antibody, V domains shown)
VH: EVQLVESGGGLVKPGGSLRLSCAASGFTFSSYSMNWVRQAPGKGLEWVSSISAGSSYTDYAESVKGRFTISRDNAKNSLYLKMNSLRAEDTAVYYCARDPGYCSSNSCTVAMDVWGQGTTVTVSS
VL: SYELTQPPSVSGAPGQRVTISCTGSSSNIGAGYDVHWYQQLPGTAPKLLIYGNNNRPSGVPDRFSGSKSGTSASLAITGLQAEDEADYYCQSYDRTLVIFGGGTKLTVL
B4: ADI-41772 (antibody, V domains shown)
VH: EVQLLESGGGLVEPGTSLRLSCEASGFTFSDYYMSWIRQAPGKGPEWVADISSRGVVTYYADSVKGRFTISRDNAKNSLYLQLNSLGAEDTAVYYCARLREVTYIMPTIDYFDYWGQGTLVTVSS
VL: SYELTQPPSVSVSPGQTARITCSGDAFVKKYAYWYHQKSGQAPVVVIYEDTKRPSGIPERFSGSSSGTTATLTISGAQVEDEGDYYCYSRDFSGDHGVFGGGTKLTVL
B5: ADI-41599 (antibody, V domains shown)
VH: EVQLLESGGGLVQPGGSLRLSCAASGFIFSNYEMNWVRQAPGKGLEWISHITPTGNSIYYADSVKGRFTISRDNAKNAQYLQMHSLRPDDTAIYYCARGEDPIAATGGFDSWGQGTLVTVSS
VL: EIVLTQSPSSLSASVGDRVTIPRRSSQNVDKFLHWYQQRPGKAPKLLIYAAFSLQSGVPSRFSGSGSGTDFTLTISSLQPEDFATYYCQQSYSTPFTFGQGTKVEIK
B6: ADI-41810 (antibody, V domains shown)
VH: QVQLVQSGGGVVQPGRSLRLSCAASGFNFHNYAMHWVRQAPGKGLEWVAVISYDGGNKHYADSVKGRFTISRDNSKNTLYLQMNSLRPDDTAVYYCARGHSDWRGDYFDFWGQGTLVTVSS
VL: DIQLTQSPATLSVSPGERAILSCRASQNVGTNLAWYQQKPGQAPRLLIYDASTRATGIPARFSGSGAGTDFTLTISGLQSEDFAVYYCQQYINWPPYTFGQGTKLEIK
B7: ADI-41597 (antibody, V domains shown)
VH: QVQLQESGPGLVKPSETLSLTCTVSGASVSSNNYYWSWIRQPPGKGLEWIGYIYYSGSTNYNASLKSRVTISVDTSKNQFSLKLSSVTAADTALYYCAGEHIFGVASPFEAPFDYWGQGTMVTVSS
VL: SSELSQPPSVSVAPGKTARITCGGNNIGIKSVHWYQQKPGQAPVLVIYSDSDRPSGIPERFSGSNSGNTATLTITRVEAGDEADYYCQVWDSSSDHFVFGIGTKVTVL
B8: ADI-41589 (antibody, V domains shown)
VH: EVQLLESGGGLVQPGGSLRLSCAASGFTFNFFALTWVRQAPGKGLEWVSAISGSGESTYYADSVKGRFTISRDNSKNTLYLQMNSLRAEDTAVYYCAKFARSGDYASFFDYWGQGTLVTVSS
VL: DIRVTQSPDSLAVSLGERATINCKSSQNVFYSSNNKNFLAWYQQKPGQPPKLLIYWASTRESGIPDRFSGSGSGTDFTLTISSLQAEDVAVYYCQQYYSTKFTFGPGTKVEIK
B9: ADI-41783 (antibody, V domains shown)
VH: QVQLVQSGDEVKKPGASVKVSCKSSGYTFTHFGVSWVRQAPGQGLEWMGWISGYNGNTNYAQKLQGRVTMTTDTSTTTAYMELTSLRSDDTAVYYCARDSPAGTVTLDFWGQGTTVTVSS
VL: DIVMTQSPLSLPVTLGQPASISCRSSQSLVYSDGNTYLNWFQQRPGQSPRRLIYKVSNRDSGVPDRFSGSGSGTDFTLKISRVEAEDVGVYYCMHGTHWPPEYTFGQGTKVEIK
B10: ADI-36675 (antibody, V domains shown)
VH: EVQLVESGGGLVQPGGSLRLSCAASGFTFNRFAMSWVRQAPGKGLEWVSGISGSGGSTLYADSVKGRFTISRDNSKNTLYLQINSLRVEDTAVYYCASRSSYDDVWNGYVDWDWGFDFYYYGMDVWGQGTTVTVSS
VL: QAVVTQEPSMSAAPGQKVTISCSGGDSNIRNNYVFWYQQLPGTAPKLLIYDNTKRPSGIPGRFSGSKSGASATLDITGLQTGDEADYYCGTWDSSLSALVFGGGTQLTVL
B11: ADI-41792 (antibody, V domains shown)
VH: QVQLVQSGGGLVKHGGSLRLSCAASGFTFSSYSMNWVRQAPGKGLEWASSISSSSSYIYYADSVKGRFTISRDNAKNSLYLQMNSLRAEDTAVYYCARTEYSSSSPIFDYWGQGTLVTVSS
VL: QSVLTQPPSVSGAPGQRVTISCTGSSSNIGAGYDVHWYQQLPGTAPKLLTYGNSNRPSGVPDRFSGSKSGTSASLAITGLQAEDEADYYCQSYDSSLSGSVFGGGTKVTVL
B12: ADI-41585 (antibody, V domains shown)
VH: EVQLLESGGGLVKPGGSLRLSCAASGFTFADYYMSWIRQAPGKGLEWVSYISGGSSFTNYADSVKGRFTISRDNAKNSLYLQMNSLRADDTAVYYCARGISPALGGGEYFQDWGQGTLVTVSS
VL: B11 VL with S2P, Q40H, T50I, G70S, S98G, S100Y, G104T
B13: ADI-41568 (antibody, V domains shown)
VH: QVQLQQWGARLLKPSETLSLTCAVYGGSFSGYYWSWIRQSPGKGLEWIGEINHSGSTNYNPSLKSRVTISRDTSKKQFSLKVSSVTAADTAVYYCARDPPIRCNGDSCKSDQYRYGMDVWGQGTTVTVSS
VL: QPGLTQPPSVSVSPGQTARITCSGDALPKQYAYWYQQKPGQAPVLVIHKDNERPSGIPERFSGSSSGTTVTLTISGVQAEDEADYYCQSADTSGSYRLFGGGTKLTVL
B14: ADI-41800 (antibody, V domains shown)
VH: QVQLVQSGAEVKKPGASVKVSCKASGYTFTDYYMHWVRQAPGQGLEWLAWINPYTGGTNYAQKFQGRVTLTRDTSVSTTYMEVTRLRSDDTAVYYCARGESFHHWGQGTLVTVSS
VL: QSALTQPASVSGSPGQSITISCTGTSSDIGGYDYVSWYQQHPGKVPKLMIYEVSTRPSGVSIRFSGSKSGNTASLTISGLQAEDEADYYCSSYTRSTITSVVFGGGTKLTVL
B15: ADI-41584 (antibody, V domains shown)
VH: QVQLVESGAEVKKPGASVKVSCKASGYTFTDYYIHWVRQAPGQGLEWVGRINPNSGYINYAQKFQGRLTMTRDTSISTAYLELSSLRSDDTAVYYCTRLPLLEPLNFFDYWGQGTLVTVSS
VL: QSVVTQPPSVSGAPGQRVTISCTGSSSNIGAGYDVHWYQQLPGTAPKVLIYGNNNRPSGVPDRFSGSKSGTSASLAITGLQAEDEADYYCQSFDSSLSSSYVFGTGTKLTVL
B16: ADI-41594 (antibody, V domains shown)
VH: EVQLVESGGGLVKPGGSLRLSCAASGFSFSSYYMNWVRQAPGKGLEWVSSISPSSSYTNYADSVKGRFTISRDNAKDSLYLQMNSLRAEDTAVYYCARDGLLGITIFGVVQDYWGQGTLVTVSS
VL: B2 VL with L4V, I41L, H51Y, S52G, N54T, G66A
B17: ADI-41788 (antibody, V domains shown)
VH: QVQLVQSGAEVKKPGASVKVSCQASGYTLTTYDINWVRQAPGQGLEWMGWMNANSGNTGYAQKFQGRVTMTRNISISTAYMELSSLGPEDTAVYYCARGFYKWNDWSFDYWGQGTLVTVSS
VL: QSVLTQPPSVSVAPGQTARITCGGNNIGSKSVHWYQQKPGQAPVLVVYDDSDRPSGIPERFSGSNSGNTAPLTISRVEAGDEADYYCQVWDGDSAHHAVFGGGTQLTVL
B18: ADI-41598 (antibody, V domains shown)
VH: EVQLVESGPGLVKPSETLSLTCTVSGGSITPYYWSWIRQPPGKGLEWIGNISYSGSTTYNPSLKSRVTISVDRSKDQFSLRLRSVTAADTAVYYCARVVTLVLGVSLNDAFDIWGQGTMVTVSS
VL: DIQMTQSPSSLSASVGDRVTITCRASQSISRYLNWYQHKPGKAPILLIYAATTLESGVPPRFSGSGSGTDFSLTISSLQPEDFATYYCQQSYSVPLTFGGGTKLEIK
B19: ADI-41595 (antibody, V domains shown)
VH: QVQLVQSGGGVVQPGGSLRLSCAASGFTFSDYGMHWVRQAPGKGLEWVAVISDGGSNQYSADSVRGRFTISRDNSKNTLYLQMNSLRPEDTAVYYCAKARIAARAIFDYWGQGTLVTVSS
VL: DIQLTQSPSSLSASVGERITITCQASRDVRIYLNWYQHKPGKAPKLLIYDASNLETGVPSRYSGSGSGTDFTFTISSLQPEDIATYFCQQYDLLPPTFGVGTKVEIK
B20: ADI-41571 (antibody, V domains shown)
VH: EVQLLESGGGLVKPGGSLRLSCEASGFPFNSYHMNWIRQSPGKGLEWVSYITGGSSFSNYADSVKGRFTISRDNAKNSLYLQMNSLRAEDTAVYYCARTTLDCTSTSCHYRFDYWGQGTLVTVSS
VL: QSVLTQPPSVSGAPGQRITISCNGSNSNIGAGYDVHWYQQLPGKAPKLLIYSNNNRPSGVPDRFSGSKSGTSASLAITGLQGEDEADYYCQSHDTRLSGNVVFGGGTKLTVL
B21: ADI-41563 (antibody, V domains shown)
VH: QVQLVESGPGLVKPSETLSLTCTVSDDSITNNFWTWIRQPPGKGLEWIGYIYYSGSTNYNPSLKSRITMSVDLSKNQFSLKLSSVTAADTAVYYCARLTSGGVDYWGQGTLVTVSS
VL: QSVLTQPPSLSGAPGQRVTISCTGSSSNIGADYHVHWYQQLPGTAPKLLIYQNTNRPSGVPDRFSASKSGTSVSLAITGLQAEDEADYYCQSYDSSLSAWVFGGGTKLTVL

The binders below were run against RSV fusion glycoprotein (RSV F) on RSV-A2 virus (respiratory syncytial virus, UniProt P03420 26-574) (assay: cell-based or functional assay).
In the case of B1, the “Neutralization IC50 (RSV subtype A)” value is reported as greater than 25 µg/mL.

These binders were tested against RSV F on RSV-A2 virus (Respiratory syncytial virus (RSV-A2)) (assay: cell-based or functional assay).
B2 was tested, and the “Neutralization IC50 (RSV subtype A)” value was greater than 25 µg/mL.

What follows are binders tested against RSV F on RSV-A2 virus (Respiratory syncytial virus, RSV-A2, UniProt P03420 26-574) (assay: cell-based or functional assay).
B3 was tested, and the “Neutralization IC50 (RSV subtype A)” value was 0.17 µg/mL.
For B4, the “Neutralization IC50 (RSV subtype A)” value was 0.04 µg/mL.
For B5, the “Neutralization IC50 (RSV subtype A)” value was 0.637 µg/mL.
With B6 the “Neutralization IC50 (RSV subtype A)” value was greater than 25 µg/mL.
B7 was tested, and the “Neutralization IC50 (RSV subtype A)” value was 0.173 µg/mL.
In the case of B8, the “Neutralization IC50 (RSV subtype A)” value is reported as greater than 25 µg/mL.
In the case of B9, the “Neutralization IC50 (RSV subtype A)” value is reported as 0.25 µg/mL.
For B10, the “Neutralization IC50 (RSV subtype A)” value was 0.006 µg/mL.
B11 was tested, and the “Neutralization IC50 (RSV subtype A)” value was greater than 25 µg/mL.
With B12 the “Neutralization IC50 (RSV subtype A)” value was 0.0641 µg/mL.
In the case of B13, the “Neutralization IC50 (RSV subtype A)” value is reported as greater than 25 µg/mL.
With B14 the “Neutralization IC50 (RSV subtype A)” value was greater than 25 µg/mL.
In the case of B15, the “Neutralization IC50 (RSV subtype A)” value is reported as greater than 25 µg/mL.
B16 was tested, and the “Neutralization IC50 (RSV subtype A)” value was 0.0406 µg/mL.
For B17, the “Neutralization IC50 (RSV subtype A)” value was 0.47 µg/mL.
In the case of B18, the “Neutralization IC50 (RSV subtype A)” value is reported as 0.174 µg/mL.
With B19 the “Neutralization IC50 (RSV subtype A)” value was 0.0475 µg/mL.
B20 was tested, and the “Neutralization IC50 (RSV subtype A)” value was 0.0315 µg/mL.
In the case of B21, the “Neutralization IC50 (RSV subtype A)” value is reported as 0.0323 µg/mL.
